# T1: P4 beads (Streptococcus pneumoniae serotype 4, UniProt P0A4G2, D258K/D259R)
# T1 sequence (P0A4G2 251-278 D258K/D259R): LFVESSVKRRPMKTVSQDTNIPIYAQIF
# T2: P4 beads (Streptococcus pneumoniae serotype 4, UniProt P0A4G2)
# T2 sequence (P0A4G2 251-278 D258K/D259R): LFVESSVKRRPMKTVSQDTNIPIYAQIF
# T3: PsaA beads (Streptococcus pneumoniae serotype 4, UniProt P0A4G2)
# T3 construct: Both, rPsaA (MW 34,079 daltons) and the synthetic peptides were non-lipidated; purchased Aventis-Pasteur, Toronto, Ontario, Canada (donated)
# T3 sequence (P0A4G2 20-309): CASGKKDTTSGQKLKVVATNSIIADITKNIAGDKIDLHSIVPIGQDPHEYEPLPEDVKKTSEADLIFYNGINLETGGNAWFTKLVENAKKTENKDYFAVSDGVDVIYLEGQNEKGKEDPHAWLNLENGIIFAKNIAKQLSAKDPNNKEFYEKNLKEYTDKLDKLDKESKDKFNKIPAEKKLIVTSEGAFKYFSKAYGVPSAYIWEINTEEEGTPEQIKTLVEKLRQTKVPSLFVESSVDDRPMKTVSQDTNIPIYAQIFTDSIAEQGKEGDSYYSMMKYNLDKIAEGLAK
# B1: rPsaA: purified recombinant pneumococcal surface adhesin A, non-lipidated, donated by Aventis-Pasteur (protein)
# chain: CASGKKDTTSGQKLKVVATNSIIADITKNIAGDKIDLHSIVPIGQDPHEYEPLPEDVKKTSEADLIFYNGINLETGGNAWFTKLVENAKKTENKDYFAVSDGVDVIYLEGQNEKGKEDPHAWLNLENGIIFAKNIAKQLSAKDPNNKEFYEKNLKEYTDKLDKLDKESKDKFNKIPAEKKLIVTSEGAFKYFSKAYGVPSAYIWEINTEEEGTPEQIKTLVEKLRQTKVPSLFVESSVDDRPMKTVSQDTNIPIYAQIFTDSIAEQGKEGDSYYSMMKYNLDKIAEGLAK
# How the values were obtained:
# [1] = system: LEC-5 and NEO fibroblast cell lines; experiment: Growth of fibroblasts with P4 treated cell supernatant; type: cell-based; settings: supernatant of P4 treated cells with higher FGFbasic, different concentrations
# Method: 2 fibroblast cell lines, LEC-5 and NEO, were used. These cells were grown in a 96 well titer plates until they become confluent (˜6 days). To this, the P4 treated cell supernatant that had higher concentration of FGFbasic was added at different concentrations and the growth was monitored fluormetrically with the help of a fluorometric metabolic indicator.
# P4 beads [2] = molecular target: T1, P4 beads; experiment: Mouse immunization: serum % IA of P4 beads (anti P4 activity); type: in vivo; settings: sera 1:32 dilution
# Method: (§1) Serum inhibition of adherence assays were performed as previously described for the inhibition of pneumococcal adherence (Romero-Steiner). Two buffer solutions were found suitable for this type of assay: solution 1 (EMEM medium—Hanks buffered saline with Ca++ and Mg++ supplemented with 0.2% BSA) as previously reported (Romero-Steiner) or solution 2 (PBS 10 mM, pH7.2-7.4 supplemented with 1% BSA and 0.5% BSA for washes) as described below. Use of one buffer solution in preference to the other depended on availability of BSA (Sigma cat #A2153). Alternative preparations of BSA were evaluated but were not found suitable for this assay due to toxicity to the cell monolayer. Briefly, confluent monolayers of Detroit 562 cells were washed once with 130 μl/well of PBS buffer+0.5% BSA. A 45 μl volume of PBS buffer+1% BSA was added to each well and the plate was incubated while preparing serum dilutions in a replicate plate (U-bottom Costar). Serum dilutions in the replica plate could be performed in a 2-fold or 3-fold dilution scheme. For the 2-fold dilution scheme, a 10 μl volume of test or control serum was added to the first row of wells (B2-B11) already containing 70 μl of PBS+1% BSA. A 40 μl volume of PBS+1% BSA was added to the remainder of the wells including the outer perimeter. The sera from row B was serially diluted into rows C-F with a multichannel pipetor set at 40 μl (2-fold). The last 401 was discarded into the waste. Serum was not added to the adherence control wells (row G or column 11). A 20 μl volume of the optimal fluosphere dilution (usually 1:100 or 1:150, containing ˜3,100 fluospheres) was added to each well, including serum-free controls. The fluosphere suspension was sonicated for 3 minutes prior to addition to the center of the wells to generate a single fluosphere suspension. The microtiter plate was mixed by tapping the sides gently and incubated for 15 minutes at 37° C., 5% CO2. At the end of the incubation period, 55 μl/well was replica plated into the microtiter plate containing the washed monolayers containing 45 μl of PBS+1% BSA. The final well volume was always adjusted to 100-μl volume regardless of the serum dilution scheme used (2-fold or 3-fold) to control the reproducibility of fluosphere adherence The plate was mixed by tapping the sides gently and incubated for 2 hours at 37° C., 5% CO2. Following incubation, plates were washed 5 times with 130 μl/well of PBS+0.5% BSA. The plates were allowed to dry before reading in a fluorometer (BioTek, FLX 800) at 485 nm for excitation and emission at 520 nm. The percent inhibition of adherence (IA) was calculated as compared to adherence controls. The following formula was used: % IA=100-(test well FU×100)/controls mean FU.
# P4 beads [3] = molecular target: T2, P4 beads; experiment: as above; type: in vivo
# Method: as §1
# PsaA beads = molecular target: T3, PsaA beads; experiment: Mouse immunization: serum % IA of PsaA beads (anti PsaA activity); type: in vivo
# Method: as §1
# [4] = mice serum dilution factor 8, 7th day
# [5] = mice serum dilution factor 8, 11th day
# [6] = mice serum dilution factor 16, 7th day
# [7] = mice serum dilution factor 16, 11th day
# [8] = mice serum dilution factor 32, 7th day
# [9] = mice serum dilution factor 32, 11th day
# [10] = mice serum dilution factor 64, 7th day
# [11] = mice serum dilution factor 64, 11th day
# [12] = mice serum dilution factor 128, 7th day
# [13] = mice serum dilution factor 128, 11th day
# [14] = mice serum dilution factor 256, 7th day
# [15] = mice serum dilution factor 256, 11th day
# [16] = mice serum dilution factor 512, 7th day
# [17] = mice serum dilution factor 512, 11th day
# [18] = mice serum dilution factor 1024, 7th day
# [19] = mice serum dilution factor 1024, 11th day
# [20] = mice serum dilution factor 2048, 7th day
# [21] = mice serum dilution factor 2048, 11th day
# [22] = mice serum dilution factor 4096, 7th day
# [23] = mice serum dilution factor 4096, 11th day
molecule,measurement,setting,value
"LFVESSVKRRPMKTVSQDTNIPIYAQIF [P4, non-branched synthetic peptide, PsaA amino acid residues 251 to 278 with DD changed to KR]",growth of fibroblasts (fluorometric metabolic indicator),[1],enhancement in the growth
same,inhibition of adherence detected in sera from immunized mice,P4 beads [2],Up to 45%
same,Anti P4 activity (% IA of P4 beads),P4 beads [3]; [4],81%
same,Anti P4 activity (% IA of P4 beads),P4 beads [3]; [5],95%
same,Anti P4 activity (% IA of P4 beads),P4 beads [3]; [6],40%
same,Anti P4 activity (% IA of P4 beads),P4 beads [3]; [7],44%
same,Anti P4 activity (% IA of P4 beads),P4 beads [3]; [8],31%
same,Anti P4 activity (% IA of P4 beads),P4 beads [3]; [9],45%
same,Anti P4 activity (% IA of P4 beads),P4 beads [3]; [10],0%
same,Anti P4 activity (% IA of P4 beads),P4 beads [3]; [11],4%
same,Anti P4 activity (% IA of P4 beads),P4 beads [3]; [12],0%
same,Anti P4 activity (% IA of P4 beads),P4 beads [3]; [13],0%
same,Anti P4 activity (% IA of P4 beads),P4 beads [3]; [14],0%
same,Anti P4 activity (% IA of P4 beads),P4 beads [3]; [15],0%
same,Anti P4 activity (% IA of P4 beads),P4 beads [3]; [16],0%
same,Anti P4 activity (% IA of P4 beads),P4 beads [3]; [17],0%
same,Anti P4 activity (% IA of P4 beads),P4 beads [3]; [18],0%
same,Anti P4 activity (% IA of P4 beads),P4 beads [3]; [19],0%
same,Anti P4 activity (% IA of P4 beads),P4 beads [3]; [20],0%
same,Anti P4 activity (% IA of P4 beads),P4 beads [3]; [21],0%
same,Anti P4 activity (% IA of P4 beads),P4 beads [3]; [22],0%
same,Anti P4 activity (% IA of P4 beads),P4 beads [3]; [23],0%
B1,Anti PsaA activity (% IA of PsaA beads),PsaA beads; [4],84%
same,Anti PsaA activity (% IA of PsaA beads),PsaA beads; [5],79%
same,Anti PsaA activity (% IA of PsaA beads),PsaA beads; [6],47%
same,Anti PsaA activity (% IA of PsaA beads),PsaA beads; [7],37%
same,Anti PsaA activity (% IA of PsaA beads),PsaA beads; [8],42%
same,Anti PsaA activity (% IA of PsaA beads),PsaA beads; [9],34%
same,Anti PsaA activity (% IA of PsaA beads),PsaA beads; [10],0%
same,Anti PsaA activity (% IA of PsaA beads),PsaA beads; [11],11%
same,Anti PsaA activity (% IA of PsaA beads),PsaA beads; [12],0%
same,Anti PsaA activity (% IA of PsaA beads),PsaA beads; [13],1%
same,Anti PsaA activity (% IA of PsaA beads),PsaA beads; [14],0%
same,Anti PsaA activity (% IA of PsaA beads),PsaA beads; [15],0%
same,Anti PsaA activity (% IA of PsaA beads),PsaA beads; [16],0%
same,Anti PsaA activity (% IA of PsaA beads),PsaA beads; [17],0%
same,Anti PsaA activity (% IA of PsaA beads),PsaA beads; [18],0%
same,Anti PsaA activity (% IA of PsaA beads),PsaA beads; [19],0%
same,Anti PsaA activity (% IA of PsaA beads),PsaA beads; [20],0%
same,Anti PsaA activity (% IA of PsaA beads),PsaA beads; [21],4%
same,Anti PsaA activity (% IA of PsaA beads),PsaA beads; [22],0%
same,Anti PsaA activity (% IA of PsaA beads),PsaA beads; [23],18%

# Reference: patent publication US7919104B2, “Functional epitopes of Streptococcus pneumoniae PsaA antigen and uses thereof” (priority 2005, dated 2011)
